From US20150210761A1 (SAMSUNG ELECTRONICS, published 2015) come the findings set out here.

In test [1] the target is T1, mouse Ang2 (Accession # NP-031452) (R&D Systems) (mouse, UniProt O35608 19-496).
T1 construct: Bought protein coated on the ELISA plate; also called mAng2
T1 sequence (looked up): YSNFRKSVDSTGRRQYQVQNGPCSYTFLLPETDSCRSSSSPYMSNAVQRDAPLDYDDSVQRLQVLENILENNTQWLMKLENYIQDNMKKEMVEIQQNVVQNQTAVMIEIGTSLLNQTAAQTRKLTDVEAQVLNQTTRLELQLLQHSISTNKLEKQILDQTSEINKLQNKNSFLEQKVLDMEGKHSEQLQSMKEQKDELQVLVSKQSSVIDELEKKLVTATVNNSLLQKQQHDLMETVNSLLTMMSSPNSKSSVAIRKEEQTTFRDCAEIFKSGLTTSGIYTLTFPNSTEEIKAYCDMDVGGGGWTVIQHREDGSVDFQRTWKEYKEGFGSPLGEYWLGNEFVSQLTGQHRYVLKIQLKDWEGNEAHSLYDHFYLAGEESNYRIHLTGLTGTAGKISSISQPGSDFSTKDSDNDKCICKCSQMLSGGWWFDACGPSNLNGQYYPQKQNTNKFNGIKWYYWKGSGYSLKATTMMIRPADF
As to the kind of experiment: ELISA on coated mouse Ang2; 50% binding concentration, which the filing calls Kd. The protocol: An ELISA was conducted to measure the binding affinity of the antibodies prepared in Example 2 to mouse Ang2(mAng2). MaxiSorp™ flat-bottom plate (Nunc) of 96-well was coated with 5-20 μg/ml of mouse Ang2 (Mouse Ang2; Accession # NP_{—}031452) (R&D Systems). Thereafter, the plate was washed five times with 0.05% (v/v) Tween-20-containing PBS (PBST) and then blocked with 1% (v/v) BSA (bovine serum albumin; Sigma)-containing PBS at a room temperature for 2 hour. Each of the anti-Ang2 antibodies was added to each well of the plate at various concentrations, and the plate was allowed to react at a room temperature for 2 hours.
Thereafter, the plate was washed five times with PBST. Then, a HRP-conjugated anti-mouse IgG antibody (Santacruz) diluted in 1% (v/v) BSA-containing PBS at a ratio of 1:1,000 (v/v) was added in an amount of 50 μl to each well to react at a room temperature for 1 hour and then, the plate was washed five times with PBST. Lastly, 100 μl of TMB substrate (Cell Signaling) was added to each well of the plate to induce color development for 3 min. and then, the reaction was ceased by the addition of 100 μl of Stop solution (Cell Signaling) and OD450 values were measured on a plate reader (Molecular Devices).
From the obtained results, 50% binding concentration (Kd) of the anti-Ang2 antibody to Ang2 protein is obtained, thereby measuring the binding intensity of each of the anti-Ang2 antibodies to Ang2.
On the technique in general: In an ELISA, binding on a coated surface is turned into a signal by an enzyme label.

Test [2] has as its target T1, mouse Ang2 (Accession # NP-031452) (R&D …). In words: ELISA on coated mouse Ang2.
Test [3] concerns the target Ang2 RBD mutant A449 (human) (UniProt O15123). In words: ELISA; antibody coated, FLAG-tagged RBD mutant, anti-FLAG-HRP detection.
Another test deals with T2, Ang2 RBD mutant Q418 (human, UniProt O15123 276-496).
T2 chain: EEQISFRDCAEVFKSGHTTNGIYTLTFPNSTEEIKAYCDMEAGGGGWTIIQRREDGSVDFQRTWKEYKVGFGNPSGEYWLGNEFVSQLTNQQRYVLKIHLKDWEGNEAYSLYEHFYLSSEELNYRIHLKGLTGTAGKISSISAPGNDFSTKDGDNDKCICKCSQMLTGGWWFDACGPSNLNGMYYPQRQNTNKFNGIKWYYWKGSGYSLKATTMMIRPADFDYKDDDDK
The test is described as above.

In the next test the target is T3, Ang2 RBD mutant N421 (human, UniProt O15123 276-496).
T3 chain: T2 chain with A143Q, N146A
The description is as above.

Another test concerns the target T4, Ang2 RBD mutant P452 (human, UniProt O15123 276-496).
T4 chain: T2 chain with A143Q, P177A
The description is as above.

The next test has as its target T5, Ang2 RBD mutant Y460 (human, UniProt O15123 276-496).
T5 chain: T2 chain with A143Q, Y185A
The test is described as above.

A further test deals with T6, Ang2 RBD mutant K468 (human, UniProt O15123 276-496).
T6 chain: T2 chain with A143Q, K193A
The test is described as above.

Positions count from the first letter of the chain named.

One may read the Kd as the constant that tells how readily two partners part at equilibrium.

B1: SAIT-ANG2-AB-m3E2 (antibody, V domains shown)
VH: EVQLQQSGAELVKPGASVKLSCTASGFNIKDPYIHWVKQRPEQGLEWIGRIDPANGNTKYDPKFQGKATITADTSSNTAYLQLSSLTSEDTAVYYCVRRWDGGGFDYWGQGTSVTVSS
VL: DIQMTQTTSSLSASLGDRVTISCRASQDISNYLNWYQQKPDGTVKLLIYYTSRLHSGVPSRFSGSGSGTDYSLTITNLEQEDIATYFCQQGNTLPWTFGGGTKLEIK
notes: also called hybridoma KCLRF-BP-00305
In test [1], B1 returned a Kd of 130 nM.

B2: SAIT-ANG2-AB-m1A10 (antibody, V domains shown)
VH: QVQLQQSGAELMKPGASVKISCKATDYTFSSYWLEWLIQRPGHGLEWIGEILPGSGSTNYNEKFRGKATFTEDTSSNTAYMQLSSLTSEDSAVYYCARGNHNSYYYAMDYWGQGTSVTVSS
VL: DIVLTQSPASLAVSLGQRATISCRASESVDSYGNSFMHWYQQKPGQPPKLLIYRASNLDSGIPARFSGSGSRTDFTLTINPVEADDVATYYCQQSNEDPLTFGAGTKLELK
notes: also called hybridoma KCLRF-BP-00306
Consider B2, for which the binding result in test [2] is “no binding”. Moreover, the Binding (%) (mutant Ang2 / native Ang2) was 95.6% in test [3]; 97.2% with Ang2 RBD mutant Q418; 89.3% with Ang2 RBD mutant N421; 105% in the test with Ang2 RBD mutant P452; 8.3% with Ang2 RBD mutant Y460; 27.3% in the test with Ang2 RBD mutant K468.

B3: SAIT-ANG2-AB-m8D3 (antibody, V domains shown)
VH: EVQLQQSGPELVKPGDSVKMSCKASGYTFTDYYMKWVRQSHGKSLQWVGEINPKNGDTFYNQIFKGKATLTVDKSSSTAYMQLTSLTSEDSAVYYCTRENDYDVGFFDYWGQGTSVTVSS
VL: TIVMTQTPKFLLVSAGDRITITCKASQSVSNDVAWYQQKPGQSPKLLIYYASNRYPGVPDRFTGSGYGTDFTFTISTVQAEDLAVYFCQQDYTSPWTFGGGTELEIK
notes: also called hybridoma KCLRF-BP-00308
Consider B3, for which binding in test [1] was put at a Kd of 141 nM.
